Measurements as given in paper PMC11077089, “Molecular basis of A. thaliana KEOPS complex in biosynthesizing tRNA t6A”.
Residue numbers refer to the chain shown, from its start.

Experiments:
Assay in all cases: EMSA; 1:5 RNA:protein; MST: 20 mM PBS pH 7.5, 300 mM NaCl, 0.05% Tween 20, 25 C, 50 nM RNA; EMSA: 20 mM Tris-HCl pH 7.5, 300 mM NaCl, 5 mM b-mercaptoethanol, 20% glycerol, agarose gel in Tris-glycine pH 8.0 (8.5 for FAM-RNA), 4 C
Conditions in all cases: protein: recombinant;recombinant;recombinant;recombinant; tags: ;none (6His on partner CGI121);6His (C-term);6His (C-term); chain copies: 2;2;2;2; label: 5' 6-FAM; tRNA cloverleaf
[1] = biological target: T1, KAE1 I17F;BUD32;CGI121;PCC1 (Arabidopsis thaliana;Arabidopsis …, UniProt O49653;Q94K14;Q6NMZ4;Q8GWD7 1-353;1-226;1-172;1-96, I17F|||)
T1 sequence 1: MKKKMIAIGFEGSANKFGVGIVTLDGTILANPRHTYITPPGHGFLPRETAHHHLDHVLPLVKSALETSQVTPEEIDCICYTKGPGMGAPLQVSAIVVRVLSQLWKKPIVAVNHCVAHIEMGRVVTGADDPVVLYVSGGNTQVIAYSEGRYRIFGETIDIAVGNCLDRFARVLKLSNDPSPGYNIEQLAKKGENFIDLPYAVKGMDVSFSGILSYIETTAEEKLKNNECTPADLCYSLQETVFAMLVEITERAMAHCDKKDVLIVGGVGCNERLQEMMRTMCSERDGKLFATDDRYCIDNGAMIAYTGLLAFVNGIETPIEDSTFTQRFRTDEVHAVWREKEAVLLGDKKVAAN
T1 sequence 2: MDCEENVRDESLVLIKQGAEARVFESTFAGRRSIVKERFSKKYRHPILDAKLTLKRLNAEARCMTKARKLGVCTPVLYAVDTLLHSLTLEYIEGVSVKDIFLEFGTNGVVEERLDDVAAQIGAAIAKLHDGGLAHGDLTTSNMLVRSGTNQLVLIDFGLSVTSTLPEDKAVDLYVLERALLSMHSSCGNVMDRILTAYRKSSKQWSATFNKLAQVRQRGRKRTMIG
T1 sequence 3: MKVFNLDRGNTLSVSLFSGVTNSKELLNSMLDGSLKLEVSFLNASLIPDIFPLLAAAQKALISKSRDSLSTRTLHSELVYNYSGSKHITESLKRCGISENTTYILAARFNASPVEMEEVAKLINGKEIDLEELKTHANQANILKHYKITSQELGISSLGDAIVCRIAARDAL
T1 sequence 4: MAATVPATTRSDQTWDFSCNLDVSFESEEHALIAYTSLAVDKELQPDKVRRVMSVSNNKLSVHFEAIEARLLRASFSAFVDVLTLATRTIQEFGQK

[2] = biological target: T2, KAE1 Y305A;BUD32;CGI121;PCC1 (Arabidopsis thaliana;Arabidopsis …, UniProt O49653;Q94K14;Q6NMZ4;Q8GWD7 1-353;1-226;1-172;1-96, Y305A|||)
T2 sequence 1: T1 sequence 1 with F17I, Y305A
T2 sequence 2: T1 sequence 2
T2 sequence 3: T1 sequence 3
T2 sequence 4: T1 sequence 4

[3] = biological target: T3, KAE1 R284C;BUD32;CGI121;PCC1 (Arabidopsis thaliana;Arabidopsis …, UniProt O49653;Q94K14;Q6NMZ4;Q8GWD7 1-353;1-226;1-172;1-96, R284C|||)
T3 sequence 1: T1 sequence 1 with F17I, R284C
T3 sequence 2: T1 sequence 2
T3 sequence 3: T1 sequence 3
T3 sequence 4: T1 sequence 4

[4] = biological target: T4, KAE1 H117A;BUD32;CGI121;PCC1 (Arabidopsis thaliana;Arabidopsis …, UniProt O49653;Q94K14;Q6NMZ4;Q8GWD7 1-353;1-226;1-172;1-96, H117A|||)
T4 sequence 1: T1 sequence 1 with F17I, H117A
T4 sequence 2: T1 sequence 2
T4 sequence 3: T1 sequence 3
T4 sequence 4: T1 sequence 4

Measured: binding result

B1: 5'-6FAM-tRNAArgCCU (structured_RNA)
RNA: GCGCCUGUAGCUCAGUGGAUAGAGCGUCUGUUUCCUAAGCAGAAGGUCGUAGGUUCGACCCCUACCUGGCGCGCCA
binds: [1] | [2] | [3] | [4]
